Measurements from US12584139B2, “Nucleic acid construct set, kit, detection method and method for predicting drug effect” (KABUSHIKI KAISHA TOSHIBA, priority 2020, dated 2026).

B1: vector 1-20: CMV-promoter vector with Cre gene cleaved by ApaI/NheI, 20-base homologous sequences at the cleavage site (from SEQ ID NO: 10) (nucleic acid)
DNA: AGTGAACCGTCAGATCCTCGAGATCTGCGATCTAAGTAATGTCCAATTTACTGACCGTACACCAAAATTTGCCTGCATTACCGGTCGATGCAACGAGTGATGAGGTTCGCAAGAACCTGATGGACATGTTCAGGGATCGCCAGGCGTTTTCTGAGCATACCTGGAAAATGCTTCTGTCCGTTTGCCGGTCGTGGGCGGCATGGTGCAAGTTGAATAACCGGAAATGGTTTCCCGCAGAACCTGAAGATGTTCGCGATTATCTTCTATATCTTCAGGCGCGCGGTCTGGCAGTAAAAACTATCCAGCAACATTTGGGCCAGCTAAACATGCTTCATCGTCGGTCCGGGCTGCCACGACCAAGTGACAGCAATGCTGTTTCACTGGTTATGCGGCGGATCCGAAAAGGGCCCGTTAACGCTAGCTTATGCGGCGGATCCGAAAAGAAAACGTTGATGCCGGTGAACGTGCAAAACAGGCTCTAGCGTTCGAACGCACTGATTTCGACCAGGTTCGTTCACTCATGGAAAATAGCGATCGCTGCCAGGATATACGTAATCTGGCATTTCTGGGGATTGCTTATAACACCCTGTTACGTATAGCCGAAATTGCCAGGATCAGGGTTAAAGATATCTCACGTACTGACGGTGGGAGAATGTTAATCCATATTGGCAGAACGAAAACGCTGGTTAGCACCGCAGGTGTAGAGAAGGCACTTAGCCTGGGGGTAACTAAACTGGTCGAGCGATGGATTTCCGTCTCTGGTGTAGCTGATGATCCGAATAACTACCTGTTTTGCCGGGTCAGAAAAAATGGTGTTGCCGCGCCATCTGCCACCAGCCAGCTATCAACTCGCGCCCTGGAAGGGATTTTTGAAGCAACTCATCGATTGATTTACGGCGCTAAGGATGACTCTGGTCAGAGATACCTGGCCTGGTCTGGACACAGTGCCCGTGTCGGAGCCGCGCGAGATATGGCCCGCGCTGGAGTTTCAATACCGGAGATCATGCAAGCTGGTGGCTGGACCAATGTAAATATTGTCATGAACTATATCCGTAACCTGGATAGTGAAACAGGGGCAATGGTGCGCCTGCTGGAAGATGGCGATTAGGGCCGCGACTCTAGAACTAGTGGATCCCCC
modifications: misc_feature 1..1138 vector 1-20
B2: vector 1-10: CMV-promoter vector with Cre gene cleaved by ApaI/NheI, 10-base homologous sequences at the cleavage site (from SEQ ID NO: 9) (nucleic acid)
DNA: AGTGAACCGTCAGATCCTCGAGATCTGCGATCTAAGTAATGTCCAATTTACTGACCGTACACCAAAATTTGCCTGCATTACCGGTCGATGCAACGAGTGATGAGGTTCGCAAGAACCTGATGGACATGTTCAGGGATCGCCAGGCGTTTTCTGAGCATACCTGGAAAATGCTTCTGTCCGTTTGCCGGTCGTGGGCGGCATGGTGCAAGTTGAATAACCGGAAATGGTTTCCCGCAGAACCTGAAGATGTTCGCGATTATCTTCTATATCTTCAGGCGCGCGGTCTGGCAGTAAAAACTATCCAGCAACATTTGGGCCAGCTAAACATGCTTCATCGTCGGTCCGGGCTGCCACGACCAAGTGACAGCAATGCTGTTTCACTGGTTATGCGGCGGGGCCCGTTAACGCTAGCTTATGCGGCGGATCCGAAAAGAAAACGTTGATGCCGGTGAACGTGCAAAACAGGCTCTAGCGTTCGAACGCACTGATTTCGACCAGGTTCGTTCACTCATGGAAAATAGCGATCGCTGCCAGGATATACGTAATCTGGCATTTCTGGGGATTGCTTATAACACCCTGTTACGTATAGCCGAAATTGCCAGGATCAGGGTTAAAGATATCTCACGTACTGACGGTGGGAGAATGTTAATCCATATTGGCAGAACGAAAACGCTGGTTAGCACCGCAGGTGTAGAGAAGGCACTTAGCCTGGGGGTAACTAAACTGGTCGAGCGATGGATTTCCGTCTCTGGTGTAGCTGATGATCCGAATAACTACCTGTTTTGCCGGGTCAGAAAAAATGGTGTTGCCGCGCCATCTGCCACCAGCCAGCTATCAACTCGCGCCCTGGAAGGGATTTTTGAAGCAACTCATCGATTGATTTACGGCGCTAAGGATGACTCTGGTCAGAGATACCTGGCCTGGTCTGGACACAGTGCCCGTGTCGGAGCCGCGCGAGATATGGCCCGCGCTGGAGTTTCAATACCGGAGATCATGCAAGCTGGTGGCTGGACCAATGTAAATATTGTCATGAACTATATCCGTAACCTGGATAGTGAAACAGGGGCAATGGTGCGCCTGCTGGAAGATGGCGATTAGGGCCGCGACTCTAGAACTAGTGGATCCCCC
modifications: misc_feature 1..1128 vector 1-10
B3: vector 1-30: CMV-promoter vector with Cre gene cleaved by ApaI/NheI, 30-base homologous sequences at the cleavage site (from SEQ ID NO: 11) (nucleic acid)
DNA: AGTGAACCGTCAGATCCTCGAGATCTGCGATCTAAGTAATGTCCAATTTACTGACCGTACACCAAAATTTGCCTGCATTACCGGTCGATGCAACGAGTGATGAGGTTCGCAAGAACCTGATGGACATGTTCAGGGATCGCCAGGCGTTTTCTGAGCATACCTGGAAAATGCTTCTGTCCGTTTGCCGGTCGTGGGCGGCATGGTGCAAGTTGAATAACCGGAAATGGTTTCCCGCAGAACCTGAAGATGTTCGCGATTATCTTCTATATCTTCAGGCGCGCGGTCTGGCAGTAAAAACTATCCAGCAACATTTGGGCCAGCTAAACATGCTTCATCGTCGGTCCGGGCTGCCACGACCAAGTGACAGCAATGCTGTTTCACTGGTTATGCGGCGGATCCGAAAAGAAAACGTTGGGGCCCGTTAACGCTAGCTTATGCGGCGGATCCGAAAAGAAAACGTTGATGCCGGTGAACGTGCAAAACAGGCTCTAGCGTTCGAACGCACTGATTTCGACCAGGTTCGTTCACTCATGGAAAATAGCGATCGCTGCCAGGATATACGTAATCTGGCATTTCTGGGGATTGCTTATAACACCCTGTTACGTATAGCCGAAATTGCCAGGATCAGGGTTAAAGATATCTCACGTACTGACGGTGGGAGAATGTTAATCCATATTGGCAGAACGAAAACGCTGGTTAGCACCGCAGGTGTAGAGAAGGCACTTAGCCTGGGGGTAACTAAACTGGTCGAGCGATGGATTTCCGTCTCTGGTGTAGCTGATGATCCGAATAACTACCTGTTTTGCCGGGTCAGAAAAAATGGTGTTGCCGCGCCATCTGCCACCAGCCAGCTATCAACTCGCGCCCTGGAAGGGATTTTTGAAGCAACTCATCGATTGATTTACGGCGCTAAGGATGACTCTGGTCAGAGATACCTGGCCTGGTCTGGACACAGTGCCCGTGTCGGAGCCGCGCGAGATATGGCCCGCGCTGGAGTTTCAATACCGGAGATCATGCAAGCTGGTGGCTGGACCAATGTAAATATTGTCATGAACTATATCCGTAACCTGGATAGTGAAACAGGGGCAATGGTGCGCCTGCTGGAAGATGGCGATTAGGGCCGCGACTCTAGAACTAGTGGATCCCCC
modifications: misc_feature 1..1148 vector 1-30

Tested on: human mammary tumor-derived cell line (MCF-7)
Test: NanoLuc luminescence assay after transfection of lipid particles encapsulating vectors 1 and vector 2
Assay type: cell-based
Settings: for luminescence amount ratio (luminescence intensity with vector 2 alone assumed to be 1): vector 1 (50 ng/well) together with vector 2 (1 ng/well), MCF-7, 48 hours; for NanoLuc luminescence intensity (RLU): vector 1 (50 ng/well) transfected together with vector 2 (1 ng/well), lipid particles, MCF-7, 48 hours after addition
Description: A human mammary tumor-derived cell line (MCF-7) was subjected to adhesion culture at 37° C. in a 5% CO2 atmosphere in a culture flask using a medium (MEM, GIBCO) to which 10% fetal bovine serum (FBS) was added. After the culture, the medium was removed, and the cells were washed with PBS, and then the cells were detached by 0.25% trypsin-EDTA treatment. Then, the cells were suspended in a medium to which 10% FBS was added to inactivate trypsin. After recovering the cells by centrifugation, the cells were suspended in a medium to which 10% FBS was added to be 2.0×10^5 cells/mL. To a 96 well culture dish (manufactured by Thermo Fisher Scientific), 200 μL of the cell suspension was added to be 4.0×10^4 cells/well.
Next, the lipid particles encapsulating the three types of vectors 1 prepared in Example 3 were added to the wells to be a DNA concentration of 50 ng/well. At the same time, the lipid particles encapsulating the vector 2 prepared in Example 3 were further added to the wells to be a DNA concentration of 1 ng/well. As a control, a well to which only the vector 2 was added was also provided. Therefore, a sample to which only the vector 2 was added, a sample to which the vector 1-10 and the vector 2 were added, a sample to which the vector 1-20 and the vector 2 were added, and a sample to which the vector 1-30 and the vector 2 were added were obtained. After the addition, the cells were cultured at 37° C. in a 5% CO2 atmosphere.
48 hours after the addition of the lipid particles, the culture plate was taken out of the incubator, and the medium was removed. Then, the cells were washed with PBS, Glo Lysis Buffer (Promega) was added thereto at 100 μL/well, and the resulting mixtures were frozen at −80° C. for 30 minutes. The mixtures were melted at room temperature and then collected in 1.5 ml centrifuge tubes. The cell lysates were centrifuged at 15,000 rpm for 10 minutes to precipitate cell residues, and 25 μL of supernatant was dispensed into a 96 well plate (Black, Nunc). To the dispensed supernatant, 25 μL of a luciferase substrate solution contained in a luciferase assay system (Nano-Glo (registered trademark) Luciferase Assay System, Promega Corporation) was added and mixed. The luminescence amount of the resulting mixture per 1 well per 0.1 seconds was measured by using a luminometer (Mithras LB 940, Berthold).

Molecule | luminescence amount ratio (luminescence intensity with vector 2 alone assumed to be 1) | NanoLuc luminescence intensity (RLU)
B1 | 0.31 | ~2.0×10^5 RLU
B2 | 0.45 | about 2.9×10^5 RLU
B3 | 0.37 | ~2.4×10^5 RLU
